{"source": "the RNAGym collection of RNA variant scans (doi:10.7554/elife.80360)", "parents": {"B1": {"name": "HDV Ribozyme (parent)", "chain": "GGCCGGCAUGGUCCCAGCCUCCUCGCUGGCGCCGGCUGGGCAACAUUCCGAGGGGACCGUCCCCUCGGUAAUGGCGAAUGGGACCCA"}}}
{"variants_of": "B1", "assay": "self-cleavage, relative activity (ratio to wild type); higher = more cleavage; co-transcriptional"}
{"variant": "C26G G81C", "self-cleavage": 0.499}
{"variant": "C26G G81A", "self-cleavage": 0.77}
{"variant": "C26U G55U", "self-cleavage": 0.929}
{"variant": "C26U G55C", "self-cleavage": 0.954}
{"variant": "C26U G55A", "self-cleavage": 1.05}
{"variant": "C26U G80C", "self-cleavage": 0.554}
{"variant": "C26G U65A", "self-cleavage": 0.655}
{"variant": "U27A C57G", "self-cleavage": 0.8}
{"variant": "U27A C57U", "self-cleavage": 1.01}
{"variant": "U27A C86G", "self-cleavage": 0.918}
{"variant": "U27G A42G", "self-cleavage": 0.289}
{"variant": "U27C G31C", "self-cleavage": 0}
{"variant": "C26U G67U", "self-cleavage": 0.686}
{"variant": "C26G G50C", "self-cleavage": 0.997}
{"variant": "C26G G50U", "self-cleavage": 1.05}
{"variant": "U27A G54U", "self-cleavage": 0.845}
{"variant": "U27A C61A", "self-cleavage": 0.906}
{"variant": "C26U C86G", "self-cleavage": 1.14}
{"variant": "C26U C86A", "self-cleavage": 0.99}
{"variant": "C26U C86U", "self-cleavage": 0.831}
{"variant": "C26G U27G", "self-cleavage": 0.208}
{"variant": "C26G U27A", "self-cleavage": 0.516}
{"variant": "C26G U27C", "self-cleavage": 0.795}
{"variant": "U27A G59A", "self-cleavage": 0.919}
{"variant": "U27A G55U", "self-cleavage": 1.14}
{"variant": "U27C G54C", "self-cleavage": 0.538}
{"variant": "U27C G67U", "self-cleavage": 0.798}
{"variant": "U27C G67C", "self-cleavage": 0.997}
{"variant": "U27C G67A", "self-cleavage": 0.886}
{"variant": "U27A G76U", "self-cleavage": 0.65}
{"variant": "U27C A70G", "self-cleavage": 0.739}
{"variant": "U27C A70U", "self-cleavage": 0.72}
{"variant": "C26U A83C", "self-cleavage": 0.95}
{"variant": "C26G C84G", "self-cleavage": 0.615}
{"variant": "C26G U69G", "self-cleavage": 0.787}
{"variant": "C26G G80A", "self-cleavage": 0.789}
{"variant": "C26G G80U", "self-cleavage": 0.261}
{"variant": "U27C A43C", "self-cleavage": 0.172}
{"variant": "C26U G74A", "self-cleavage": 0.717}
{"variant": "C26U G74C", "self-cleavage": 0.519}
{"variant": "U27A A42U", "self-cleavage": 0}
{"variant": "U27A A42C", "self-cleavage": 0.0831}
{"variant": "U27C C48G", "self-cleavage": 0.831}
{"variant": "C26U U65A", "self-cleavage": 0.769}
{"variant": "C26G G54C", "self-cleavage": 0.782}
{"variant": "C26G G54U", "self-cleavage": 0.941}
{"variant": "U27C U47A", "self-cleavage": 0.519}
{"variant": "U27C U47G", "self-cleavage": 0.782}
{"variant": "U27C U47C", "self-cleavage": 0.511}
{"variant": "C26G U72C", "self-cleavage": 0.862}
{"variant": "C26G C66G", "self-cleavage": 1.1}
{"variant": "C26G C66U", "self-cleavage": 1.16}
{"variant": "U27G A70G", "self-cleavage": 1.14}
{"variant": "C26G C86G", "self-cleavage": 0.886}
{"variant": "C26G C86U", "self-cleavage": 0.831}
{"variant": "C26G G35U", "self-cleavage": 0.499}
{"variant": "C26G G35A", "self-cleavage": 0.326}
{"variant": "C26G G28U", "self-cleavage": 0.0396}
{"variant": "C26G G28C", "self-cleavage": 0.0504}
{"variant": "U27C A42U", "self-cleavage": 0.475}
{"variant": "U27A G34U", "self-cleavage": 0.272}
{"variant": "U27C U65G", "self-cleavage": 0.831}
{"variant": "U27C U65A", "self-cleavage": 0.957}
{"variant": "U27A A87C", "self-cleavage": 0.88}
{"variant": "U27C G81C", "self-cleavage": 0.369}
{"variant": "C26G G67A", "self-cleavage": 0.696}
{"variant": "C26G G34U", "self-cleavage": 0.525}
{"variant": "C26G G53A", "self-cleavage": 1.02}
{"variant": "U27G A45U", "self-cleavage": 0.831}
{"variant": "U27G A45C", "self-cleavage": 0.26}
{"variant": "U27G A56U", "self-cleavage": 0.692}
{"variant": "C26U G28C", "self-cleavage": 0.19}
{"variant": "C26U G28U", "self-cleavage": 0.277}
{"variant": "U27C G76U", "self-cleavage": 0.883}
{"variant": "U27C G76A", "self-cleavage": 0.869}
{"variant": "C26G G55U", "self-cleavage": 0.975}
{"variant": "U27C C36U", "self-cleavage": 0.404}
{"variant": "U27C C41A", "self-cleavage": 0.192}
{"variant": "U27C C41U", "self-cleavage": 0.604}
{"variant": "U27C C41G", "self-cleavage": 0.217}
{"variant": "U27A C66A", "self-cleavage": 0.886}
{"variant": "U27A C66G", "self-cleavage": 0.755}
{"variant": "U27A G35A", "self-cleavage": 0.369}
{"variant": "U27A G35U", "self-cleavage": 0.201}
{"variant": "U27A G35C", "self-cleavage": 0.201}
{"variant": "U27A A51U", "self-cleavage": 0.739}
{"variant": "C26U U37A", "self-cleavage": 0.462}
{"variant": "C26U G35U", "self-cleavage": 0.641}
{"variant": "C26U G35C", "self-cleavage": 0.288}
{"variant": "U27A U69A", "self-cleavage": 0.831}
{"variant": "U27A U69C", "self-cleavage": 1.11}
{"variant": "U27A U69G", "self-cleavage": 1.02}
{"variant": "U27C G35C", "self-cleavage": 0}
{"variant": "C26G U46C", "self-cleavage": 1.15}
{"variant": "C26G U79A", "self-cleavage": 0.692}
{"variant": "C26G U79G", "self-cleavage": 0.8}
{"variant": "C26G U79C", "self-cleavage": 0.458}
{"variant": "U27C A71U", "self-cleavage": 0.639}
{"variant": "U27C A71C", "self-cleavage": 0.458}
{"variant": "U27C A71G", "self-cleavage": 0.677}
{"variant": "U27G A71C", "self-cleavage": 0.7}
{"variant": "U27A G50U", "self-cleavage": 0.99}
{"variant": "C26U A42G", "self-cleavage": 0.902}
{"variant": "C26U C58U", "self-cleavage": 1.16}
{"variant": "C26U C58A", "self-cleavage": 1.03}
{"variant": "C26U C58G", "self-cleavage": 0.831}
{"variant": "C26U G40C", "self-cleavage": 0.946}
{"variant": "C26U G40A", "self-cleavage": 0.885}
{"variant": "C26U C66U", "self-cleavage": 1.02}
{"variant": "C26U G39C", "self-cleavage": 0.475}
{"variant": "C26U G39A", "self-cleavage": 0.599}
{"variant": "C26U G39U", "self-cleavage": 0.936}
{"variant": "U27C C75U", "self-cleavage": 0.161}
{"variant": "C26U G50A", "self-cleavage": 1.07}
{"variant": "C26G G68C", "self-cleavage": 1.07}
{"variant": "C26G G68U", "self-cleavage": 0.686}
{"variant": "C26U C33A", "self-cleavage": 0.307}
{"variant": "U27C C86A", "self-cleavage": 0.875}
{"variant": "U27C C86U", "self-cleavage": 0.745}
{"variant": "U27A C84U", "self-cleavage": 0.795}
{"variant": "U27A C84A", "self-cleavage": 0.831}
{"variant": "U27G A43G", "self-cleavage": 0.302}
{"variant": "U27G A43C", "self-cleavage": 0.166}
{"variant": "U27A C41A", "self-cleavage": 0.895}
{"variant": "U27C G52U", "self-cleavage": 1.01}
{"variant": "C26U U60C", "self-cleavage": 0.95}
{"variant": "U27C C64U", "self-cleavage": 0.895}
{"variant": "U27C A51C", "self-cleavage": 0.858}
{"variant": "U27C A51G", "self-cleavage": 0.914}
{"variant": "C26U C57U", "self-cleavage": 1.05}
{"variant": "C26U G29A", "self-cleavage": 0.332}
{"variant": "C26U G29C", "self-cleavage": 0.0959}
{"variant": "U27C C32A", "self-cleavage": 0.0519}
{"variant": "U27C A78U", "self-cleavage": 0.297}
{"variant": "U27C A78G", "self-cleavage": 0.227}
{"variant": "C26U G82U", "self-cleavage": 0.769}
{"variant": "C26U G82A", "self-cleavage": 0.769}
{"variant": "C26U G81C", "self-cleavage": 0.748}
{"variant": "U27A G68A", "self-cleavage": 0.944}
{"variant": "U27A G68U", "self-cleavage": 0.875}
{"variant": "U27C C49A", "self-cleavage": 0.776}
{"variant": "U27C C49G", "self-cleavage": 0.962}
{"variant": "C26U U79C", "self-cleavage": 0.671}
{"variant": "U27C C33G", "self-cleavage": 0.237}
{"variant": "U27C C33U", "self-cleavage": 0.453}
{"variant": "C26U A87U", "self-cleavage": 1}
{"variant": "C26U A87C", "self-cleavage": 0.953}
{"variant": "C26U A87G", "self-cleavage": 1.04}
{"variant": "U27A G53A", "self-cleavage": 0.646}
{"variant": "U27A G53U", "self-cleavage": 0.798}
{"variant": "C26U A71C", "self-cleavage": 0.748}
{"variant": "C26U A71G", "self-cleavage": 0.928}
{"variant": "C26U A71U", "self-cleavage": 0.941}
{"variant": "U27C G82C", "self-cleavage": 0.356}
{"variant": "U27C G82A", "self-cleavage": 0.396}
{"variant": "U27A G28C", "self-cleavage": 0}
{"variant": "U27A G28A", "self-cleavage": 0.0811}
{"variant": "U27A G82A", "self-cleavage": 0.849}
{"variant": "C26G G52A", "self-cleavage": 0.867}
{"variant": "U27A G73C", "self-cleavage": 0.0639}
{"variant": "U27A C75U", "self-cleavage": 0.0519}
{"variant": "U27C A87C", "self-cleavage": 0.595}
{"variant": "U27A C49A", "self-cleavage": 0.831}
{"variant": "C26U A43G", "self-cleavage": 0.745}
{"variant": "C26U A43U", "self-cleavage": 0.708}
{"variant": "C26U G59C", "self-cleavage": 0.935}
{"variant": "C26U G59U", "self-cleavage": 0.881}
